Measurements taken from IntAct's records for PubMed 7538907.

B1: Tumor necrosis factor receptor superfamily member 6 (Homo sapiens), P25445 (parent)
chain: MLGIWTLLPLVLTSVARLSSKSVNAQVTDINSKGLELRKTVTTVETQNLEGLHHDGQFCHKPCPPGERKARDCTVNGDEPDCVPCQEGKEYTDKAHFSSKCRRCRLCDEGHGLEVEINCTRTQNTKCRCKPNFFCNSTVCEHCDPCTKCEHGIIKECTLTSNTKCKEEGSRSNLGWLCLLLLPIPLIVWVKRKEVQKTCRKHRKENQGSHESPTLNPETVAINLSDVDLSKYITTIAGVMTLSQVKGFVRKNGVNEAKIDEIKNDNVQDTAEQKVQLLRNWHQLHGKKEAYDTLIKDLKKANLCTLAEKIQTIILKDITSDSENSNFRNEIQSLV
B2: FAS-associated death domain protein (Homo sapiens), Q13158 (parent)
chain: MDPFLVLLHSVSSSLSSSELTELKFLCLGRVGKRKLERVQSGLDLFSMLLEQNDLEPGHTELLRELLASLRRHDLLRRVDDFEAGAAAGAAPGEEDLCAAFNVICDNVGKDWRRLARQLKVSDTKIDSIEDRYPRNLTERVRESLRIWKNTEKENATVAHLVGALRSCQMNLVADLVQEVQQARDLQNRSGAMSPMSWNSDASTSEAS

Variants of: B1
Details: with fadd_human FADD

**Q.** How did the “effect of a mutation on the interaction” value turn out when MLGIWTLLPLVLTSVARLSSKSVNAQVTDINSKGLELRKTVTTVETQNLEGLHHDGQFCHKPCPPGERKARDCTVNGDEPDCVPCQEGKEYTDKAHFSSKCRRCRLCDEGHGLEVEINCTRTQNTKCRCKPNFFCNSTVCEHCDPCTKCEHGIIKECTLTSNTKCKEEGSRSNLGWLCLLLLPIPLIVWVKRKEVQKTCRKHRKENQGSHESPTLNPETVAINLSDVDLSKYITTIAGVMTLSQVKGFVRKNGNNEAKIDEIKNDNVQDTAEQKVQLLRNWHQLHGKKEAYDTLIKDLKKANLCTLAEKIQTIILKDITSDSENSNFRNEIQSLV [V254N] was run?
**A.** The value was “decreasing interaction”.

Variants of: B2
Details: with tnr6_human FAS

**Q.** How did the “effect of a mutation on the interaction” value turn out when MDPFLVLLHSVSSSLSSSELTELKFLCLGRVGKRKLERVQSGLDLFSMLLEQNDLEPGHTELLRELLASLRRHDLLRRVDDFEAGAAAGAAPGEEDLCAAFNVICDNVGKDWRRLARQLKNSDTKIDSIEDRYPRNLTERVRESLRIWKNTEKENATVAHLVGALRSCQMNLVADLVQEVQQARDLQNRSGAMSPMSWNSDASTSEAS [V121N] was run?
**A.** Its value is “decreasing interaction”.
